Measured values reported in patent US20250034594A1, “RNA-GUIDED GENOME RECOMBINEERING AT KILOBASE SCALE” (THE BOARD OF TRUSTEES OF THE LELAND STANFORD JUNIOR …, priority 2021, published 2025).

B1: Homolog_T7: RecT, Providencia alcalifaciens DSM 30120; SEQ ID NO: 143 (protein, listed as Providencia alcalifaciens)
chain: MKAQLAAALPKHITSDRMIRIVSTEIRKTPSLANCDIQSFIGAVVQCSQLGLEPGNALGHAYLLPFGNGKSDNGKSNVQLIIGYRGMIDLARRSGQIISISARTVRQGDNFHFEYGLNENLTHIPEGNEDSPITHVYAVARLKDEGVQFEVMTYNQIEKVRDSSKAGKNGPWVTHWEEMAKKTVIRRLFKYLPVSIEMQKAVILDEKAEANIEQDHSAIFEAEFEEVDSNGN
B2: Homolog_E7: RecE, Providencia alcalifaciens DSM 30120; SEQ ID NO: 144 (protein, listed as Providencia alcalifaciens)
chain: MNEGIYYDISNEDYHHGLGISKSQLDLIDESPADFIWHRDAPVDNEKTKALDFGTALHCLLLEPDEFQKRFRIAPEVNRRTNAGKEQEKEFLEMCEKENITPITNEDNRKLSLMKDSAMAHPIARWCLEAKGIAESSIYWKDKDTDILCRCRPDKLIEEHHWLVDVKSTADIQKFERSMYEYRYHVQDSFYSDGYKSLTGEMPVFVFLAVSTVINCGRYPVRVFVLDEQAKSVGRITYKQNLFTYAECLKTDEWAGIRTLSLPSWAKELKHEHTTAS
B3: Homolog_T9: RecT, Bacillus sp. MUM 116; SEQ ID NO: 129 (protein, listed as Bacillus sp.)
chain: MSKQLTTVNTQAVVGTFSQAELDTLKQTIAKGTTNEQFALFVQTCANSRLNPFLNHIHCIVYNGKEGATMSLQIAVEGILYLARKTDGYKGIECQLIHENDEFKFDAKSKEVDHQIGFPRGNVIGGYAIAKREGFDDVVVLMESNEVDHMLKGRNGHMWRDWFNDMFKKHIMKRAAKLQYGIEIAEDETVSSGPSVDNIPEYKPQPRKDITPNQDVIDAPPQQPKQDDEAAKLKAARSEVSKKFKKLGIVKEDQTEYVEKHVPGFKGTLSDFIGLSQLLDLNIEAQEAQSADGDLLD
B4: Homolog_E5: RecE, Providencia stuartii; SEQ ID NO: 124 (protein, listed as Providencia stuartii)
chain: EGIYYNISNEDYHNGLGISKSQLDLINEMPAEYIWSKEAPVDEEKIKPLEIGTALHCLLLEPDEYHKRYKIGPDVNRRTNAGKEKEKEFFDMCEKEGITPITHDDNRKLMIMRDSALAHPIAKWCLEADGVSESSIYWTDKETDVLCRCRPDRIITAHNYIVDVKSSGDIEKFDYEYYNYRYHVQDAFYSDGYKEVTGITPTFLFLVVSTKIDCGKYPVRTYVMSEEAKSAGRTAYKHNLLTYAECLKTDEWAGIRTLSLPRWAKELRNE
B5: Homolog_T5: RecT, Providencia stuartii; SEQ ID NO: 123 (protein, listed as Providencia stuartii)
chain: MSNPPLAQADLQKTQGTEVKEKTKDQMLVELINKPSMKAQLAAALPRHMTPDRMIRIVTTEIRKTPALATCDMQSFVGAVVQCSQLGLEPGNALGHAYLLPFGNGKSKSGQSNVQLIIGYRGMIDLARRSGQIVSISARTVRQGDNFHFEYGLNENLTHVPGENEDSPITHVYAVARLKDGGVQFEVMTYNQIEKVRASSKAGQNGPWVSHWEEMAKKTVIRRLFKYLPVSIEMQKAVILDEKAEANIDQENATIFEGEYEEVGTDGK
B6: Homolog_E8: RecE, Shewanella putrefaciens; SEQ ID NO: 128 (protein, listed as Shewanella putrefaciens)
chain: MGTALAQTISLDWQDTIQPAYTASGKPNFLNAQGEIVEGIYTDLPNSVYHALDAHSSTGIKTFAKGRHHYFRQYLSDVCRQRTKQQEYTFDAGTYGHMLVLEPENFHGNFMRNPVPDDFPDIELIESIPQLKAALAKSNLPVSGAKAALIERLYAFDPSLPLFEKMREKAITDYLDLRYAKYLRTDVELDEMATFYGIDTSQTREKKIEEILAISPSQPIWEKLISQHVIDHIVWDDAMRVERSTRAHPKADWLISDGYAELTIIARCPTTGLLLKVRFDWLRNDAIGVDFKTTLSTNPTKFGYQIKDLRYDLQQVFYCYVANLAGIPVKHFCFVATEYKDADNCETFELSHKKVIESTEEMFDLLDEFKEALTSGNWYGHDRSRSTWVIEV
B7: Homolog_T6: RecT, Providencia sp. MGF014; SEQ ID NO: 125 (protein, listed as Providencia sp.)
chain: MSNPPLAQSDLQKTQGTEVKVKTKDQQLIQFINQPSMKAQLAAALPRHMTPDRMIRIVTTEIRKTPALATCDMQSFVGAVVQCSQLGLEPGNALGHAYLLPFGNGKAKSGQSNVQLIIGYRGMIDLARRSNQIISISARTVRQGDNFHFEYGLNEDLTHTPSENEDSPITHVYAVARLKDGGVQFEVMTYNQVEKVRASSKAGQNGPWVSHWEEMAKKTVIRRLFKYLPVSIEMQKAVVLDEKAEANVDQENATIFEGEYEEVGTDGN
B8: Homolog_E6: RecE, Providencia sp. MGF014; SEQ ID NO: 126 (protein, listed as Providencia sp.)
chain: MKEGIYYNISNEDYHNGLGISKSQLDLINEMPAEYIWSKEAPVDEEKIKPLEIGTALHCLLLEPDEYHKRYKIGPDVNRRTNVGKEKEKEFFDMCEKEGITPITHDDNRKLMIMRDSALAHPIAKWCLEADGVSESSIYWTDKETDVLCRCRPDRIITAHNYIIDVKSSGDIEKFDYEYYNYRYHVQDAFYSDGYKEVTGITPTFLFLVVSTKIDCGKYPVRTYVMSEEAKSAGRTAYKHNLLTYAECLKTDEWAGIRTLSLPRWAKELRNE
B9: Homolog_T8: RecT, Shewanella putrefaciens; SEQ ID NO: 127 (protein, listed as Shewanella putrefaciens)
chain: MQTAQVKLSVPHQQVYQDNFNYLSSQVVGHLVDLNEEIGYLNQIVFNSLSTASPLDVAAPWSVYGLLLNVCRLGLSLNPEKKLAYVMPSWSETGEIIMKLYPGYRGEIAIASNFNVIKNANAVLVYENDHFRIQAATGEIEHFVTSLSIDPRVRGACSGGYCRSVLMDNTIQISYLSIEEMNAIAQNQIEANMGNTPWNSIWRTEMNRVALYRRAAKDWRQLIKATPEIQSALSDTEY
B10: Homolog_E9: RecE, Bacillus sp. MUM 116; SEQ ID NO: 130 (protein, listed as Bacillus sp.)
chain: MTYAADETLVQLLLSVDGKQLLLGRGLKKGKAQYYINEVPSKAKEFEEIRDQLFDKDLFMSLFNPSYFFTLHWEKQRAMMLKYVTAPVSKEVLKNLPEAQSEVLERYLKKHSLVDLEKIHKDNKNKQDKAYISAQSRTNTLKEQLMQLTEEKLDIDSIKAELAHIDMQVIELEKQMDTAFEKNQAFNLQAQIRNLQDKIEMSKERWPSLKNEVIEDTCRTCKRPLDEDSVEAVKADKDNRIAEYKAKHNSLVSQRNELKEQLNTIEYIDVTELREQIKELDESGQPLREQVRIYSQYQNLDTQVKSAEADENGILQDLKASIFILDSIKAFRGKEAEMQAEKVQALFTTLSVRLFKQNKGDGEIKPDFEIEMNDKPYRTLSLSEGIRAGLELRDVLSQQSELVTPTFVDNAESITSFKQPNGQLIISRVVAGQELKIEAVSE

Experiments:
DYNLT1 locus = assay: mKate knock-in gene-editing assay, RecE/RecT homologs, DYNLT1 locus; format: cell-based, human; conditions: HEK293 cells, MCP fusion, n=3
Procedure: (§1) Transfection HEK293T cells were seeded into 96-well plates (Corning) 12-24 hours prior to transfection at a density of 30,000 cells/well, and 250 ng of total DNA was transfected per well. HeLa and HepG2 cells were seeded into 48-well plates (Corning) one day prior to transfection at a density of 50,000 and 30,000 cells/well respectively, and 400 ng of total DNA was transfected per well. Transfections were performed with Lipofectamine 3000 (Life Technologies) following the manufacturer's instructions.
(§2) Fluorescence-activated cell sorting (FACS) mKate knock-in efficiency was analyzed on a CytoFLEX flow cytometer (Beckman Coulter; Stanford Stem Cell FACS Core). 72 hours after transfection, cells were washed once with PBS and dissociated with TrypLE Express Enzyme (Thermo Fisher Scientific). Cell suspension was then transferred to a 96-well U-bottom plate (Thermo Fisher Scientific) and centrifuged at 300×G for 5 minutes. After removing the supernatant, pelleted cells were resuspended with 50 μl 4% FBS in PBS, and cells were sorted within 30 minutes of preparation.
(§3) 15 different species of microbes having RecE/RecT proteins were selected for a screen of various RecE and RecT proteins across the microbial kingdom (Table 3). Each protein was codon-optimized and synthesized. As previously described for E. coli RecE/RecT based REDIT systems, each protein was fused via E-XTEN linker to the MCP protein with additional nuclear localization signal. mKate knock-in gene-editing assay was used to measure efficiencies at DYNLT1 locus (FIG. 26A, Table 4) and HSP90AA1 locus (FIG. 26B, Table 4).

HSP90AA1 locus = assay: mKate knock-in gene-editing assay, RecE/RecT homologs, HSP90AA1 locus; format: cell-based, human; conditions: HEK293 cells, MCP fusion, n=3
Procedure: as §1, §2, §3

Molecule	Mean mKate+ (%), DYNLT1 (DYNLT1 locus) [%]	Mean mKate+ (%), HSP90AA1 (HSP90AA1 locus) [%]
B1	5.6467	5.3700
B2	4.4733	5.7367
B3	8.1300	6.2000
B4	4.4667	6.0233
B5	10.8267	6.4300
B6	4.6567	7.0533
B7	9.0533	6.2500
B8	5.4100	5.9300
B9	5.0400	5.7133
B10	5.3233	5.6900
